Test results from the supplement of paper PMC10567573.

B1: IKZF1 (parent)
chain: YHSQDRYEFSSHITRGEHRFHMS

Variants of: B1
Assay: protein stability index of a GFP-peptide fusion (GPS, HEK-293T) (PSI 1-6); higher = more stable
Settings: c terminus: native
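Note: lentivirally expressed fusions sorted by FACS into six bins by GFP to DsRed ratio, PSI derived from sequencing read proportions per bin multiplied by bin number.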

Variant	protein stability index
YHSQDRYEFSSHITCGEHRFHMS [R15C]	2.69
YHSQDRYEFSSHISRGEHRFHMS [T14S]	1.85
YHSQDRYEFSSHICRGEHRFHMS [T14C]	1.58
YHSQDRYEFSSHIRRGEHRFHMS [T14R]	2.07
YHSQDRYEFSSHIHRGEHRFHMS [T14H]	1.99
YHSQDRYEFSSHIERGEHRFHMS [T14E]	1.68
YHSQDRYEFSSHIARGEHRFHMS [T14A]	2.38
YHSQDRYEFSSHIVRGEHRFHMS [T14V]	2.04
YHSQDRYEFSSHIGRGEHRFHMS [T14G]	1.54
YHSQDRYEFSRHITRGEHRFHMS [S11R]	2.33
YHSQDRYEFSFHITRGEHRFHMS [S11F]	2.9
YHSQDRYEFSQHITRGEHRFHMS [S11Q]	2.07
YHSQDRYEFSHHITRGEHRFHMS [S11H]	1.61
YHSQDRYEFSLHITRGEHRFHMS [S11L]	3.83
YHSQDRYEFSDHITRGEHRFHMS [S11D]	2.01
YHSQDRYEFSSHITRGEHRFSMS [H21S]	1.89
YHSQDRYEFSSHITRGEHRFPMS [H21P]	1.89
YHSQDRYEFSSHITRGEHRFTMS [H21T]	2.04
YHSQDRYEFSSHITRGEHRFNMS [H21N]	2.27
YHSQDRYEFSSHITRGEHRFRMS [H21R]	2.88
YHSQDRYEFSSHITRGEHRFAMS [H21A]	2.43
YHSQDRYEFSSHITRGEHRFMMS [H21M]	1.6
YHSQDRYEFSSHITRGEHRFIMS [H21I]	3.07
YHSQDRYEFPSHITRGEHRFHMS [S10P]	2.08
YHSQDRYEFNSHITRGEHRFHMS [S10N]	1.72

Variant	protein stability index
YHSQDRYEFESHITRGEHRFHMS [S10E]	1.74
YHSQDRYEFRSHITRGEHRFHMS [S10R]	1.9
YHSQDRYEFHSHITRGEHRFHMS [S10H]	1.84
YHSQDRYEFVSHITRGEHRFHMS [S10V]	1.95
YHSQDRYEFFSHITRGEHRFHMS [S10F]	2.1
YHSQDRYEFGSHITRGEHRFHMS [S10G]	1.92
YHSQDRYEFWSHITRGEHRFHMS [S10W]	3.17
YHSQDRYEFSSHITRGPHRFHMS [E17P]	2.04
YHSQDRYEFSSHITRGVHRFHMS [E17V]	1.68
YHSQDRYEFSSHITRGLHRFHMS [E17L]	2.11
YHSQDRYEFSSHITRGKHRFHMS [E17K]	2.41
YHSQDRYEFSSHITRGDHRFHMS [E17D]	1.63
YHSQDRYEFSSHITRGGHRFHMS [E17G]	1.56
YHKQDRYEFSSHITRGEHRFHMS [S3K]	2.33
YHWQDRYEFSSHITRGEHRFHMS [S3W]	2.61
YHCQDRYEFSSHITRGEHRFHMS [S3C]	1.59
YHMQDRYEFSSHITRGEHRFHMS [S3M]	1.95
YHGQDRYEFSSHITRGEHRFHMS [S3G]	2
YHEQDRYEFSSHITRGEHRFHMS [S3E]	2.56
YHIQDRYEFSSHITRGEHRFHMS [S3I]	2.73
YHDQDRYEFSSHITRGEHRFHMS [S3D]	2.76
YHSQDRYEFSSHITRGEHRFHSS [M22S]	2.03
YHSQDRYEFSSHITRGEHRFHES [M22E]	1.82
YHSQDRYEFSSHITRGEHRFHCS [M22C]	3.14
YHSQDRYEFSSHITRGEHRFHPS [M22P]	2.01

Variant	protein stability index
YHSQDRYEFSSHITRGEHRFHVS [M22V]	2
YHSQDRYEFSSIITRGEHRFHMS [H12I]	1.92
YHSQDRYEFSSNITRGEHRFHMS [H12N]	2.67
YHSQDRYEFSSVITRGEHRFHMS [H12V]	2.49
YHSQDRYEFSSLITRGEHRFHMS [H12L]	2.06
YHSQDRYEFSSAITRGEHRFHMS [H12A]	1.71
YHSQDRYEFSSDITRGEHRFHMS [H12D]	1.88
YHSQDRYEFSSEITRGEHRFHMS [H12E]	2.47
YHSQDRYEFSSQITRGEHRFHMS [H12Q]	2.83
YHSQDRYEFSSGITRGEHRFHMS [H12G]	3.61
YHSQDRYEFSSKITRGEHRFHMS [H12K]	2.31
YHSQDRYEFSSRITRGEHRFHMS [H12R]	2.79
THSQDRYEFSSHITRGEHRFHMS [Y1T]	3.5
EHSQDRYEFSSHITRGEHRFHMS [Y1E]	4
VHSQDRYEFSSHITRGEHRFHMS [Y1V]	3.57
IHSQDRYEFSSHITRGEHRFHMS [Y1I]	3.35
AHSQDRYEFSSHITRGEHRFHMS [Y1A]	3.73
FHSQDRYEFSSHITRGEHRFHMS [Y1F]	1.73
DHSQDRYEFSSHITRGEHRFHMS [Y1D]	4.05
KHSQDRYEFSSHITRGEHRFHMS [Y1K]	2.12
QHSQDRYEFSSHITRGEHRFHMS [Y1Q]	3.99
PHSQDRYEFSSHITRGEHRFHMS [Y1P]	3.84
NHSQDRYEFSSHITRGEHRFHMS [Y1N]	4.05
YHSQDRYEFSSHITRVEHRFHMS [G16V]	1.35
YHSQDRYEFSSHITRSEHRFHMS [G16S]	1.5

Variant	protein stability index
YHSQDRYEFSSHITRLEHRFHMS [G16L]	1.53
YHSQDRYEFSSHITRWEHRFHMS [G16W]	1.51
YHSQDRYEFSSHITRYEHRFHMS [G16Y]	4.64
YHSQDRYEFSSHITRAEHRFHMS [G16A]	1.76
YHSQDRYEFSSHITRNEHRFHMS [G16N]	2.04
YHSQDRYEFSSHITRIEHRFHMS [G16I]	1.77
YHSQDRYEFSSHITRGEHRAHMS [F20A]	2.15
YHSQDRYEFSSHITRGEHRMHMS [F20M]	1.83
YHSQDRYEFSSHITRGEHREHMS [F20E]	1.42
YHSQDRYEFSSHITRGEHRQHMS [F20Q]	2.5
YHSQDRYEFSSHITRGEHRTHMS [F20T]	1.75
YHSQDRYEFSSHITRGEHRIHMS [F20I]	3.73
YHSQDRYEFSSHITRGEHRWHMS [F20W]	2.93
YHSQDRYEFSSHDTRGEHRFHMS [I13D]	1.52
YHSQDRYEFSSHETRGEHRFHMS [I13E]	1.83
YHSQDRYEFSSHFTRGEHRFHMS [I13F]	1.81
YHSQDRYEFSSHNTRGEHRFHMS [I13N]	2.05
YHSQDRYEFSSHLTRGEHRFHMS [I13L]	2.52
YHSQDRYEFSSHRTRGEHRFHMS [I13R]	1.49
YHSQDRYEFSSHPTRGEHRFHMS [I13P]	1.78
YHSQDRYEFSSHVTRGEHRFHMS [I13V]	1.78
YHSQDRYEFSSHSTRGEHRFHMS [I13S]	2.03
